Experimental data as given in patent publication US20170306033A1 (Amgen, published 2017).
Changes are numbered by the printed parent chain.

T1: human PAC1 receptor (human, UniProt P41586 21-468)
T1 sequence: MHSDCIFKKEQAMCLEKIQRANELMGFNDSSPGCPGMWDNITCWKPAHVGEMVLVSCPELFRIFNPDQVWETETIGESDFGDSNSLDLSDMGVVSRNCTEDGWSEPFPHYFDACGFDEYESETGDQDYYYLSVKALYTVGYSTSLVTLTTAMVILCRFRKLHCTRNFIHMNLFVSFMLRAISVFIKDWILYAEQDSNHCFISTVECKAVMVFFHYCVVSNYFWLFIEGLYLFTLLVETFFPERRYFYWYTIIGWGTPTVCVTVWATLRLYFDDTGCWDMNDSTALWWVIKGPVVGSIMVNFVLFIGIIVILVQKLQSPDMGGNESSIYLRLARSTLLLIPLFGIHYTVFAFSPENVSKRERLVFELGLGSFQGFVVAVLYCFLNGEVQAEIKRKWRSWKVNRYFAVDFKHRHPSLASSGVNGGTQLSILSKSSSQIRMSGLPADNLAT

B1: iPS:327872 (bispecific antibody, human IgG1, kappa, N297G)
light 1: DIQMTQSPSSLSASVGDRITITCRASQSISRYLNWYQQKPGKAPKLLIYAASSLQSGIPSRFSGSGSGTDFTLTINSLQPEDFATYFCQQSYSPPFTFGQGTKVDIKRTVAAPSVFIFPPSDEQLKSGTASVVCLLNNFYPREAKVQWKVDNALQSGNSQESVTEQDSKDSTYSLESTLTLSKADYEKHKVYACEVTHQGLSSPVTKSFNRGEC
heavy 1: not shown
light 2: EIVLTQSPGTLSLSPGERATLSCRASQSVSSGYLTWYQQKPGQAPRLLIYGASSRATGIPDRFSGSGSGTDFTLTISRLEPEDFAVYYCQQYGNSLSRFGQGTKLEIKRTVAAPSVFIFPPSDEQLKSGTASVVCLLNNFYPREAKVQWKVDNALQSGNSQESVTEQDSKDSTYSLKSTLTLSKADYEKHKVYACEVTHQGLSSPVTKSFNRGEC
heavy 2: not shown
B2: iPS:327891 (bispecific antibody, human IgG1, kappa, lambda, N297G)
light 1: B1 light 1
heavy 1: not shown
light 2: QSVLTQPPSVSAAPGQKVTISCSGSSSNIGNNYVSWYQQLPGTAPKLLIYDNNKRPSGIPDRFSGSKSGTSATLAITGLQTGDEADYYCGTWDSRLSAVVFGGGTKLTVLGQPKANPTVTLFPPSSEELQANKATLVCLISDFYPGAVTVAWKADGSPVKAGVETTKPSKQSNNKYAAKSYLSLTPEQWKSHRSYSCQVTHEGSTVEKTVAPTECS
heavy 2: QVQLVESGGGVVQPGRSLRLSCAASGFTFSSFGMHWVRQAPGKGLEWVAVISFDGSIKYSVDSVKGRFTISRDNSKNTLFLQMNSLRAEDTAVYYCARDRLNYYDSSGYYHYKYYGMAVWGQGTTVTVSSASTKGPSVFPLAPSSKSTSGGTAALGCLVKDYFPEPVTVSWNSGALTSGVHTFPAVLQSSGLYSLESVVTVPSSSLGTQTYICNVNHKPSNTKVDKKVEPKSCDKTHTCPPCPAPELLGGPSVFLFPPKPKDTLMISRTPEVTCVVVDVSHEDPEVKFNWYVDGVEVHNAKTKPCEEQYGSTYRCVSVLTVLHQDWLNGKEYKCKVSNKALPAPIEKTISKAKGQPREPQVYTLPPSRKKMTKNQVSLTCLVKGFYPSDIAVEWESNGQPENNYKTTPPVLKSDGSFFLYSKLTVDKSRWQQGNVFSCSVMHEALHNHYTQKSLSLSPGK
B3: iPS:327881 (bispecific antibody, human IgG1, kappa, lambda, N297G)
light 1: B1 light 1
heavy 1: not shown
light 2: B2 light 2 with A72T, A75G
heavy 2: B2 heavy 2 with D105E
B4: iPS:327883 (bispecific antibody, human IgG1, kappa, lambda, N297G)
light 1: B1 light 1
heavy 1: not shown
light 2: B2 light 2 with A75G
heavy 2: B2 heavy 2 with K370E
B5: iPS:326666 (bispecific antibody, human IgG2, kappa)
light 1: not shown
heavy 1: QVQLQESGPGLVKPSQTLSLTCTVSGGSISSGGYYWSWIRQHPGKGLEWIGYIYYSGNTYYNPSLKSRVTISGDTSKNQFSLKLRSVTAADTAVYYCTRGGAARGMDVWGQGTTVTVSSASTKGPSVFPLAPCSRSTSESTAALGCLVKDYFPEPVTVSWNSGALTSGVHTFPAVLQSSGLYSLKSVVTVPSSNFGTQTYTCNVDHKPSNTKVDKTVERKCCVECPPCPAPPVAGPSVFLFPPKPKDTLMISRTPEVTCVVVDVSHEDPEVQFNWYVDGVEVHNAKTKPREEQFNSTFRVVSVLTVVHQDWLNGKEYKCKVSNKGLPAPIEKTISKTKGQPREPQVYTLPPSREEMTKNQVSLTCLVDGFYPSDIAVEWESNGQPENNYDTTPPMLDSDGSFFLYSDLTVDKSRWQQGNVFSCSVMHEALHNHYTQKSLSLSPGK
light 2: B1 light 2
heavy 2: QVQLVESGGGVVQPGRSLRLSCAASGFTFSSYGMHWVRQAPGKGLEWVAVIWYDGSNKYYADSVKGRFIISRDKSKNTLYLQMNSLRAEDTAVYYCARAGGIAAAGLYYYYGMDVWGQGTTVTVSSASTKGPSVFPLAPCSRSTSESTAALGCLVKDYFPEPVTVSWNSGALTSGVHTFPAVLQSSGLYSLESVVTVPSSNFGTQTYTCNVDHKPSNTKVDKTVERKCCVECPPCPAPPVAGPSVFLFPPKPKDTLMISRTPEVTCVVVDVSHEDPEVQFNWYVDGVEVHNAKTKPREEQFNSTFRVVSVLTVVHQDWLNGKEYKCKVSNKGLPAPIEKTISKTKGQPREPQVYTLPPSRKKMTKNQVSLTCLVKGFYPSDIAVEWESNGQPENNYKTTPPMLKSDGSFFLYSKLTVDKSRWQQGNVFSCSVMHEALHNHYTQKSLSLSPGK
B6: iPS:327893 (bispecific antibody, human IgG1, kappa, lambda, N297G)
light 1: B1 light 1
heavy 1: not shown
light 2: B2 light 2 with A75G
heavy 2: B2 heavy 2 with D105E, K370E
B7: iPS:327874 (bispecific antibody, human IgG1, kappa, N297G)
light 1: not shown
heavy 1: not shown
light 2: B1 light 2
heavy 2: not shown
B8: iPS:327879 (bispecific antibody, human IgG1, kappa, lambda, N297G)
light 1: not shown
heavy 1: not shown
light 2: B2 light 2 with A72T, A75G
heavy 2: B2 heavy 2 with D105E, K370E
B9: iPS:327894 (bispecific antibody, human IgG1, kappa, lambda, N297G)
light 1: not shown
heavy 1: not shown
light 2: B2 light 2 with A75G
heavy 2: B2 heavy 2 with D105E, K370E
B10: iPS:327892 (bispecific antibody, human IgG1, kappa, lambda, N297G)
light 1: not shown
heavy 1: not shown
light 2: B2 light 2
heavy 2: B2 heavy 2
B11: iPS:327885 (bispecific antibody, human IgG1, kappa, lambda, N297G)
light 1: not shown
heavy 1: not shown
light 2: B2 light 2 with A75G, G103K
heavy 2: B2 heavy 2 with G44E, K370E
B12: iPS:327880 (bispecific antibody, human IgG1, kappa, lambda, N297G)
light 1: not shown
heavy 1: not shown
light 2: B2 light 2 with A72T, A75G, G103K
heavy 2: B2 heavy 2 with G44E, D105E, K370E
B13: iPS:327882 (bispecific antibody, human IgG1, kappa, lambda, N297G)
light 1: not shown
heavy 1: not shown
light 2: B2 light 2 with A72T, A75G
heavy 2: B2 heavy 2 with D105E
B14: iPS:327884 (bispecific antibody, human IgG1, kappa, lambda, N297G)
light 1: not shown
heavy 1: not shown
light 2: B2 light 2 with A75G
heavy 2: B2 heavy 2 with K370E

What was measured:
[1] = molecular target: T1, human PAC1 receptor; test: cell-based or functional assay
[2] = molecular target: human CGRP receptor (human, UniProt Q16602 23-461; O60894 27-148); test: cell-based or functional assay
Sequence of human CGRP receptor (Q16602 23-461 limits assumed, chain 1 of 2): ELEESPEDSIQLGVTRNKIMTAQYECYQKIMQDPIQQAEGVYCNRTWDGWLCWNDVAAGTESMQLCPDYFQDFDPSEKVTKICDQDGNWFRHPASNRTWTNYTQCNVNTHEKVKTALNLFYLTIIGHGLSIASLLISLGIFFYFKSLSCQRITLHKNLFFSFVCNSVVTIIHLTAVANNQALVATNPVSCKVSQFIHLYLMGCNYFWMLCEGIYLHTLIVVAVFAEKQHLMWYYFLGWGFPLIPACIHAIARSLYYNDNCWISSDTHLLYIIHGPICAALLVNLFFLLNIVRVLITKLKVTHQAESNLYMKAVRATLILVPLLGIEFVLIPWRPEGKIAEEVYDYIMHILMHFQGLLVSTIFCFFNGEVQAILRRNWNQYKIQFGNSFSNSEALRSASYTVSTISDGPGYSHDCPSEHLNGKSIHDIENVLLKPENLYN
Sequence of human CGRP receptor (O60894 27-148 limits assumed, chain 2 of 2): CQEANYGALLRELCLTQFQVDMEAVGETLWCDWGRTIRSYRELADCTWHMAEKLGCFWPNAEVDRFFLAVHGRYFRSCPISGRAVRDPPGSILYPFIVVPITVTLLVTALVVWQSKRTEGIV

% inhibition of human PAC1 [1] [%] | % inhibition of human CGRPR [2] [%] | Binder
40 | 80 | B1
78 | 80 | B2
16 | 76 | B3
27 | 77 | B4
15 | 74 | B5
56 | 74 | B6
5 | 95 | B7
19 | 81 | B8
12 | 80 | B9
33 | 88 | B10
7 | 73 | B11
15 | 87 | B12
13 | 83 | B13
8 | 78 | B14
